The target in the assay is SARS-CoV-2 Spike S1 subunit (Sino Biological) (SARS-CoV-2, UniProt P0DTC2 16-685).

B1: AB-009760 (antibody, V domains shown)
VH: EVQLVQSGAEVKKPGESLKISCKGSGYSFTSYWIGWVRQMPGKGLEWMGIIYPGDSDTRYSPSFQGQVTISADKSISTAYLQWSSLKASDTAMYYCARSRSSDYFDYWGQGTLVTVSS
VL: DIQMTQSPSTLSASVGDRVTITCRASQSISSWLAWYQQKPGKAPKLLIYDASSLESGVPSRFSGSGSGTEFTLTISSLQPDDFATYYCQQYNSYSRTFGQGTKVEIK
For the molecule B1, the kon – broadly, the second-order rate constant of association – amounted to 64100 M⁻¹ s⁻¹.

B2: AB-009270 (antibody, V domains shown)
VH: QMQLVQSGPEVKKPGTSVKVSCKASGFTFTSSAMQWVRQARGQRLEWIGWIVVGSGNTNYAQKFQERVTITRDMSTSTAYMELSSLRSEDTAVYYCAVNYCSSTSCYDAFDIWGQGTMVTVSS
VL: not shown
In the case of B2, the off-rate constant (koff) (usually the first-order rate constant of dissociation) amounted to 0.000208 s⁻¹ and the on-rate (kon) was determined as 69000 M⁻¹ s⁻¹.

Source of the values: patent publication US20240301038A1 (ATRECA, published 2024).
